PMC6353875, “The EZH2 SANT1 domain is a histone reader providing sensitivity to the modification state of the H4 tail” (Scientific Reports, 2019)

Target: EZH2 SRM-SANT1 (residues 141–251) (human) (UniProt Q15910)
Assay: NMR titration; 15N-HSQC spectra of 0.05–0.10 mM 15N-EZH2 SRM-SANT1 with increasing concentrations of histone peptide; 25 °C; Kd from normalized CSPs, one-site model accounting for ligand depletion, averaged over significantly perturbed residues

Chain of EZH2 SRM-SANT1 (residues 141–251) (human) (Q15910 141-251): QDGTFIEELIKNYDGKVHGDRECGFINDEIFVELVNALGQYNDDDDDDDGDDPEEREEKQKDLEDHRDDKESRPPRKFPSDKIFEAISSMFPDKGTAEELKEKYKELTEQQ

unmodified histone H4 peptide (residues 1–21) (from UniProt P62805 2-22)
Kd: 300 µM
